These results are taken from paper PMC8469703, “Arginine Methylation of hnRNPK Inhibits the DDX3-hnRNPK Interaction to Play an Anti-Apoptosis Role in Osteosarcoma Cells” (International Journal of Molecular Sciences, 2021).

The target in assay [1] is T1, GST-tagged full-length DDX3 (GST-DDX3^1–662) (human, UniProt O00571 1-662).
T1 construct: Vector pGEX-5X-1
Nature of the assay: pull-down; bead-bound GST-DDX3 variants incubated with recombinant hnRNPK or the KI segment; binding buffer PBS with 0.5% NP-40, 0.25% sodium deoxycholate, 5% glycerol, protease inhibitors; 4 °C, 1 h; three washes; SDS-PAGE. Particulars: both partners purified.

In assay [2] the target is T2, GST-tagged C-terminal region of DDX3 (GST-DDX3^535–662) (human, UniProt O00571 535-662).
T2 construct: Vector pGEX-5X-1; also called DDX3 C-terminus
T2 sequence (O00571 535-662): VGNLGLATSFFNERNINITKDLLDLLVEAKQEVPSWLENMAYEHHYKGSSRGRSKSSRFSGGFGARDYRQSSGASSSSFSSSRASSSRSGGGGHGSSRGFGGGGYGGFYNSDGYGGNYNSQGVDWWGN
The assay is described as above. To be noted: both partners purified.

T1 sequence (O00571 whole entry): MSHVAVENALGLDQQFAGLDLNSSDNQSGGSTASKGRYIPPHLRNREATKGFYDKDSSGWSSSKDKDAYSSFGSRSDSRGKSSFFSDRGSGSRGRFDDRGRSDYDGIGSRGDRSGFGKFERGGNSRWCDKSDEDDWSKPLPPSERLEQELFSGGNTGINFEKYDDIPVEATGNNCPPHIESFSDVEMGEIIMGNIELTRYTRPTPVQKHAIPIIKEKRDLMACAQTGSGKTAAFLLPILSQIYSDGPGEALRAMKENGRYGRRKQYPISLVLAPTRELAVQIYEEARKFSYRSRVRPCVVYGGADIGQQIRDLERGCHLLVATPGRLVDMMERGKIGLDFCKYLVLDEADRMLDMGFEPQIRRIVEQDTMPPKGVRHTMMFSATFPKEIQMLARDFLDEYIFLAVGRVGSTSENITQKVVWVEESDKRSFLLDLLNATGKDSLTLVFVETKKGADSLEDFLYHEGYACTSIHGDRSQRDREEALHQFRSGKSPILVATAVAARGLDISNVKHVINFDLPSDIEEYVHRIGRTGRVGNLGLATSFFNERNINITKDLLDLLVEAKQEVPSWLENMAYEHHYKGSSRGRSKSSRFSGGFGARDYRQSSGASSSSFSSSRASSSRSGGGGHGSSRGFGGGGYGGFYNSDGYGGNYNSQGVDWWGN

B1: His6-tagged Trx-KI (K-interactive region of hnRNPK, amino acids 240–336) (domain or fragment, UniProt P61978 240-336, looked up)
chain: TMMFDDRRGRPVGFPMRGRGGFDRMPPGRGGRPMPPSRRDYDDMSPRRGPPPPPPGRGGRGGSRARNLPLPPPPPPRGGDLMAYDRRGRPGDRYDGM
notes: also called his-KI; KI segment; source: E. coli BL21 DE3 pLysS, purified (Ni-NTA agarose, dialysis)
For B1, the binding result in assay [1] and in assay [2] was “binds” each time.
